Measurements published in patent US20180155451A1 (published 2018).
Residue numbers refer to the chain shown, from its start. Names may count otherwise.

T1: FcγRIIb (human, UniProt P31994 43-217)
T1 construct: extracellular domain; also called FcgRIIb; 2b; not shown: His tag at the C terminus
T1 sequence (looked up): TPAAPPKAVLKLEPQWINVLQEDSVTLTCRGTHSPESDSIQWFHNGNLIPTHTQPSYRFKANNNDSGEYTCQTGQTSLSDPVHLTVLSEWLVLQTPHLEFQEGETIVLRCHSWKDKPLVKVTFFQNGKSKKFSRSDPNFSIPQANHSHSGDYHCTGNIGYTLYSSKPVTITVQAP

T2: FcgRIIb (human, UniProt P31994 43-217)
T2 construct: extracellular domain; also called FcγRIIb; not shown: His tag attached to the C terminus
T2 sequence (looked up): T1 sequence (looked up)

T3: FcgRIIa R (human, UniProt P12318 34-217)
T3 construct: extracellular domain; also called FcγRIIa R; FcγRIIa type R; not shown: His tag attached to the C terminus
T3 sequence (looked up): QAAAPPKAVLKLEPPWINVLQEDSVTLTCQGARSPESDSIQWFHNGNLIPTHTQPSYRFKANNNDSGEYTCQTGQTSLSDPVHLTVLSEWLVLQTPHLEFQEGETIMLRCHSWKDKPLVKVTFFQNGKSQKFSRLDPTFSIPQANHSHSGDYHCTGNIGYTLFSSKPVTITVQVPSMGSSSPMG

T4: FcgRIIa H (human, UniProt P12318 34-217)
T4 construct: extracellular domain; also called FcγRIIa H; FcγRIIa type H; not shown: His tag attached to the C terminus
T4 sequence (looked up): T3 sequence (looked up) with R134H

B1: GpH7-A5/GpH7-B3 variant K326_02A/GpL16-k0 (antibody, human IgG1, kappa)
heavy 1: not shown
heavy 2: not shown
light: DIVMTQSPLSLPVTPGEPASISCQASESLVHSNRNTYLHWYLQKPGQSPQLLIYKVSNRFSGVPDRFSGSGSGTDFTLKISRVEAEDVGVYYCSQNTHVPPTFGQGTKVEIERTVAAPSVFIFPPSDEQLKSGTASVVCLLNNFYPREAKVQWKVDNALQSGNSQESVTEQDSKDSTYSLSSTLTLSKADYEKHKVYACEVTHQGLSSPVTKSFNRGEC
notes: heterodimerized IgG1; alteration in the GpH7-B3 H chain only; also called He Ab
B2: GpH7-A5/GpH7-B3 variant K326_07I/GpL16-k0 (antibody, human IgG1, kappa)
heavy 1: not shown
heavy 2: not shown
light: B1 light
notes: as for B1
B3: GpH7-A5/GpH7-B3 variant K326_03V/GpL16-k0 (antibody, human IgG1, kappa)
heavy 1: not shown
heavy 2: not shown
light: B1 light
notes: as for B1
B4: GpH7-A5/GpH7-B3 variant K326_04F/GpL16-k0 (antibody, human IgG1, kappa)
heavy 1: not shown
heavy 2: not shown
light: B1 light
notes: as for B1
B5: GpH7-A5/GpH7-B3 variant K326_06M/GpL16-k0 (antibody, human IgG1, kappa)
heavy 1: not shown
heavy 2: not shown
light: B1 light
notes: as for B1
B6: GpH7-A5/GpH7-B3 variant H268_13S/GpL16-k0 (antibody, human IgG1, kappa)
heavy 1: not shown
heavy 2: not shown
light: B1 light
notes: as for B1
B7: GpH7-A5/GpH7-B3 variant H268_18N/GpL16-k0 (antibody, human IgG1, kappa)
heavy 1: not shown
heavy 2: not shown
light: B1 light
notes: as for B1
B8: GpH7-A5/GpH7-B3 variant H268_10E/GpL16-k0 (antibody, human IgG1, kappa)
heavy 1: not shown
heavy 2: not shown
light: B1 light
notes: as for B1
B9: H240-Kn061 (Y235A)/H240-Hl071/L73-k0 (antibody, human IgG1, kappa)
heavy 1: QDQLVQSGAEVKKPGASVKVSCKASGFNIKDTYIQWVRQAPGQGLEWMGRIDPLRKQTKYREKFEGRVTITADTSTNTAYMELSSLRSEDTAVYYCVRSGREFDYWGQGTLVTVSSASTKGPSVFPLAPSSKSTSGGTAALGCLVKDYFPEPVTVSWNSGALTSGVHTFPAVLQSSGLYSLSSVVTVPSSSLGTQTYICNVNHKPSNTKVDKKVEPKSCDKTHTCPPCPAPEYAWGPSVFLFPPKPKDTLMISRTPEVTCVVVDVSDEDPEVKFNWYVDGVEVHNAKTKPREEQYNATYRVVSVLTVLHQDWLNGKEYKCKVSNKALPAPIEKTISKAKGQPREPQVCTLPPSRDELTKNQVSLWCLVKGFYPSDIAVEWESNGQPENNYKTTPPVLDSDGSFFLYSKLTVDKSRWQQGNVFSCSVMHEALHNHYTQKSLSLSP
heavy 2: QDQLVQSGAEVKKPGASVKVSCKASGFNIKDTYIQWVRQAPGQGLEWMGRIDPLRKQTKYREKFEGRVTITADTSTNTAYMELSSLRSEDTAVYYCVRSGREFDYWGQGTLVTVSSASTKGPSVFPLAPSSKSTSGGTAALGCLVKDYFPEPVTVSWNSGALTSGVHTFPAVLQSSGLYSLSSVVTVPSSSLGTQTYICNVNHKPSNTKVDKKVEPKSCDKTHTCPPCPAPELLGGPSVFLFPPKPKDTLMISRTPEVTCVVVDVSHEDPEVKFNWYVDGVEVHNAKTKPREEQYNSTYRVVSVLTVLHQDWLNGKEYKCKVSNDALPMPIEETISKAKGQPREPQVYTLPPSRCELTKNQVSLSCAVKGFYPSDIAVEWESNGQPENNYKTTPPVLDSDGSFFLVSKLTVDKSRWQQGNVFSCSVMHEALHNHYTQKSLSLSP
light: DIQMTQSPSSLSASVGDRVTITCRASQDIHKYIAWYQQKPGQAPRLLIQYTSTLQPGVPSRFSGSGSGTDYTFTISSLQPEDIATYYCLQYEQLRTFGGGTKVEIKRTVAAPSVFIFPPSDEQLKSGTASVVCLLNNFYPREAKVQWKVDNALQSGNSQESVTEQDSKDSTYSLSSTLTLSKADYEKHKVYACEVTHQGLSSPVTKSFNRGEC
B10: H240-Kn061 (Y235P)/H240-Hl071/L73-k0 (antibody, human IgG1, kappa)
heavy 1: B9 heavy 1 with A234P
heavy 2: B9 heavy 2
light: B9 light
B11: H240-Kn061 (Y235Q)/H240-Hl071/L73-k0 (antibody, human IgG1, kappa)
heavy 1: B9 heavy 1 with A234Q
heavy 2: B9 heavy 2
light: B9 light
B12: H240-Kn061 (Y235V)/H240-Hl071/L73-k0 (antibody, human IgG1, kappa)
heavy 1: B9 heavy 1 with A234V
heavy 2: B9 heavy 2
light: B9 light
B13: H240-Kn061 (Y235I)/H240-Hl071/L73-k0 (antibody, human IgG1, kappa)
heavy 1: B9 heavy 1 with A234I
heavy 2: B9 heavy 2
light: B9 light
B14: H240-Kn061 (Y234E)/H240-Hl071/L73-k0 (antibody, human IgG1, kappa)
heavy 1: B9 heavy 1 with Y233E, A234Y
heavy 2: B9 heavy 2
light: B9 light
B15: H240-Kn061/H240-Hl071 (V240H)/L73-k0 (antibody, human IgG1, kappa)
heavy 1: B9 heavy 1 with A234Y
heavy 2: B9 heavy 2 with V239H
light: B9 light

Each binder was assayed against T5, FcγRIa (human, UniProt P12314 16-292) (assay: SPR (Biacore), antibody captured, FcγR as analyte; binding as % of GpH7-A5/GpH7-B3/GpL16-k0).
T5 construct: extracellular domain; also called FcgRI; 1a; not shown: His tag at the C terminus
T5 sequence (P12314 16-292): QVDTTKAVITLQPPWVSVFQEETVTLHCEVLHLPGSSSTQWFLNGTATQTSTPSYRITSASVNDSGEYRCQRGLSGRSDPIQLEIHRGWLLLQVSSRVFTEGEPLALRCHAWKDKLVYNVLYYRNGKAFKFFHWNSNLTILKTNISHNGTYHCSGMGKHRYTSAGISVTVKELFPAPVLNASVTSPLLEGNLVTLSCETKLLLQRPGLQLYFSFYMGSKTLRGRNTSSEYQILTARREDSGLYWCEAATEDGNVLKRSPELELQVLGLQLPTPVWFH

He/Con_1a | Binder
102 % of control | B1
101 % of control | B2
102 % of control | B3
102 % of control | B4
102 % of control | B5
109 % of control | B6
108 % of control | B7
111 % of control | B8

The binders below were run against T1, FcγRIIb in the same assay as above.

He/Con_2b | Binder
139 % of control | B1
199 % of control | B2
175 % of control | B3
155 % of control | B4
165 % of control | B5
160 % of control | B6
156 % of control | B7
230 % of control | B8

These binders were tested against T5, FcγRIa (assay: SPR (Biacore); He/Con_1a (FcγRIa) divided by He/Con_2b (FcγRIIb)).

Ia/IIb He_1a/2b [ratio] | Binder
0.73 | B1
0.51 | B2
0.58 | B3
0.66 | B4
0.62 | B5
0.68 | B6
0.69 | B7
0.48 | B8

The binders below were run against T6, FcgRIIIa F (human, UniProt P08637 17-208) (assay: SPR (Biacore); KD of H240-Kn061/H240-Hl071/L73-k0 divided by KD of the variant).
T6 construct: extracellular domain; also called FcγRIIIa F; 3aF; not shown: His tag attached to the C terminus
T6 sequence (P08637 17-208): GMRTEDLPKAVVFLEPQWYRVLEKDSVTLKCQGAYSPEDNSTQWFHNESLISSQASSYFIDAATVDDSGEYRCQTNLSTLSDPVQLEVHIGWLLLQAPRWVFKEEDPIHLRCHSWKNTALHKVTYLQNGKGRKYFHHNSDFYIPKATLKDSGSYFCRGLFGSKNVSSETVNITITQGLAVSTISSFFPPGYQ
Method: (§1) The antibodies were assessed for the binding to each FcgR. […] The resultant value was defined as relative KD, and used as an assessment indicator.
(§2) Analysis of interaction between obj ective antibody and the FcγR was carried out using Biacore T100 (GE Healthcare), Biacore T200, Biacore A100, and Biacore 4000. HBS-EP+ (GE Healthcare) was used as the running buffer, and the measurement temperature was set to 25° C. Chips produced by immobilizing the antigen peptide by the amine coupling method to a Series S sensor Chip CM5 (GE Healthcare), chips produced by allowing preliminarily biotinylated antigen peptides to interact with and immobilize onto a Series S Sensor Chip SA (certified) (GE Healthcare), chips produced by immobilizing Protein L (ACTIGEN, BioVision) to Series S Sencor Chip CM5 (GE Healthcare), or chips produced by immobilizing Protein A/G (Thermo Scientific) to Series S Sencor Chip CM5 (GE Healthcare) were used. Antibodies of interest were captured onto these chips, and allowed to interact to each FcγR diluted with running buffer.

Relative KD | Binder
1.2 | B9
1.1 | B10
1 | B11
1.2 | B12
1.3 | B13
1.9 | B14

These binders were tested against T2, FcgRIIb in the same assay as above.
Method: as §1, §2

Relative KD | Binder
0.2 | B9
0.5 | B10
0.1 | B11
0.2 | B12
0.2 | B13
0.5 | B14

What follows are binders tested against T7, FcgRIIIa V (human, UniProt P08637 17-208) in the same assay as above.
T7 construct: extracellular domain; also called FcγRIIIa V; not shown: His tag attached to the C terminus
T7 sequence (P08637 17-208 F176V limits assumed): as the sequence (P08637 17-208) above, with F160V counted along it
Method: as §1, §2

Relative KD | Binder
1.3 | B9
1.5 | B10
1.3 | B11
1.3 | B12
1.6 | B13
1.6 | B14

Biological target: T6, FcgRIIIa F
Experiment: as above
Remark: another data set of the same source

Relative KD | Binder
1.2 | B9
1.1 | B10
1 | B11
1.2 | B12
1.3 | B13
1.9 | B14
1.3 | B15

Biological target: T2, FcgRIIb
Experiment: as above
Remark: another data set of the same source

Relative KD | Binder
0.2 | B9
0.5 | B10
0.1 | B11
0.2 | B12
0.2 | B13
0.5 | B14
0.3 | B15

What follows are binders tested against T3, FcgRIIa R in the same assay as above.

Relative KD | Binder
0.5 | B9
0.6 | B10
0.8 | B11
0.5 | B12
0.7 | B13
1.4 | B14
0.7 | B15

What follows are binders tested against T4, FcgRIIa H in the same assay as above.

Relative KD | Binder
0.5 | B9
0.4 | B10
0.4 | B11
0.4 | B12
0.4 | B13
0.7 | B14
0.8 | B15

Biological target: T7, FcgRIIIa V
Experiment: as above
Remark: another data set of the same source

Relative KD | Binder
1.3 | B9
1.5 | B10
1.3 | B11
1.3 | B12
1.6 | B13
1.6 | B14
1 | B15
